# T1: FcγRIIb extracellular domain with C-terminal His tag (human, UniProt P31994 43-217)
# T1 construct: extracellular domain; also called FcgRIIb; 2b; not shown: His tag at the C terminus
# T1 sequence (looked up): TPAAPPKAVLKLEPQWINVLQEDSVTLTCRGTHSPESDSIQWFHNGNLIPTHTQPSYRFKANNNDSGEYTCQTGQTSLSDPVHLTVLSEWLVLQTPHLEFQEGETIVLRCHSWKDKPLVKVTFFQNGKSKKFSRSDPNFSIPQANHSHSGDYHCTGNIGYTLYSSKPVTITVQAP
# Molecular target: T1, FcγRIIb extracellular domain with …
# Assay: SPR, relative binding, HoCon Ab = 100
# Procedure: Analysis of interaction between objective antibody and the FcγR was carried out using Biacore T100 (GE Healthcare). HBS-EP+ (GE Healthcare) was used as the running buffer, and the measurement temperature was set to 25° C. Chips produced by immobilizing the antigen peptide by the amine coupling method to a Series S Sencor Chip CM5 (GE Healthcare), or alternatively, chips produced by allowing preliminarily biotinylated antigen peptides to interact with and immobilize onto a Series S Sensor Chip SA (certified) (GE Healthcare) were used. Antibodies of interest were captured onto an antigen peptide-immobilized chip, and allowed to interact to each FcγR diluted with running buffer. To regenerate and repeatedly use the chip, the antibodies captured on the chip were washed off by reacting 10 mM glycine-HCl, pH 1.5.
row,Binder,Ho/Con_2b
1,"GpH7-B3 variant K334_07I/GpL16-k0 (antibody, human IgG1, kappa, also called Ho Ab K334_07I) heavy: not shown light: DIVMTQSPLSLPVTPGEPASISCQASESLVHSNRNTYLHWYLQKPGQSPQLLIYKVSNRFSGVPDRFSGSGSGTDFTLKISRVEAEDVGVYYCSQNTHVPPTFGQGTKVEIERTVAAPSVFIFPPSDEQLKSGTASVVCLLNNFYPREAKVQWKVDNALQSGNSQESVTEQDSKDSTYSLSSTLTLSKADYEKHKVYACEVTHQGLSSPVTKSFNRGEC",137 % of control
2,"GpH7-B3 variant K334_13S/GpL16-k0 (antibody, human IgG1, kappa, also called Ho Ab K334_13S) heavy: not shown light: DIVMTQSPLSLPVTPGEPASISCQASESLVHSNRNTYLHWYLQKPGQSPQLLIYKVSNRFSGVPDRFSGSGSGTDFTLKISRVEAEDVGVYYCSQNTHVPPTFGQGTKVEIERTVAAPSVFIFPPSDEQLKSGTASVVCLLNNFYPREAKVQWKVDNALQSGNSQESVTEQDSKDSTYSLSSTLTLSKADYEKHKVYACEVTHQGLSSPVTKSFNRGEC",117 % of control
3,"GpH7-B3 variant K326_14T/GpL16-k0 (antibody, human IgG1, kappa, also called Ho Ab K326_14T) heavy: not shown light: DIVMTQSPLSLPVTPGEPASISCQASESLVHSNRNTYLHWYLQKPGQSPQLLIYKVSNRFSGVPDRFSGSGSGTDFTLKISRVEAEDVGVYYCSQNTHVPPTFGQGTKVEIERTVAAPSVFIFPPSDEQLKSGTASVVCLLNNFYPREAKVQWKVDNALQSGNSQESVTEQDSKDSTYSLSSTLTLSKADYEKHKVYACEVTHQGLSSPVTKSFNRGEC",177 % of control
4,"GpH7-B3 variant K334_02A/GpL16-k0 (antibody, human IgG1, kappa, also called Ho Ab K334_02A) heavy: not shown light: DIVMTQSPLSLPVTPGEPASISCQASESLVHSNRNTYLHWYLQKPGQSPQLLIYKVSNRFSGVPDRFSGSGSGTDFTLKISRVEAEDVGVYYCSQNTHVPPTFGQGTKVEIERTVAAPSVFIFPPSDEQLKSGTASVVCLLNNFYPREAKVQWKVDNALQSGNSQESVTEQDSKDSTYSLSSTLTLSKADYEKHKVYACEVTHQGLSSPVTKSFNRGEC",110 % of control
5,"GpH7-B3 variant K334_14T/GpL16-k0 (antibody, human IgG1, kappa, also called Ho Ab K334_14T) heavy: not shown light: DIVMTQSPLSLPVTPGEPASISCQASESLVHSNRNTYLHWYLQKPGQSPQLLIYKVSNRFSGVPDRFSGSGSGTDFTLKISRVEAEDVGVYYCSQNTHVPPTFGQGTKVEIERTVAAPSVFIFPPSDEQLKSGTASVVCLLNNFYPREAKVQWKVDNALQSGNSQESVTEQDSKDSTYSLSSTLTLSKADYEKHKVYACEVTHQGLSSPVTKSFNRGEC",138 % of control
6,"GpH7-B3 variant K326_19Q/GpL16-k0 (antibody, human IgG1, kappa, also called Ho Ab K326_19Q) heavy: not shown light: DIVMTQSPLSLPVTPGEPASISCQASESLVHSNRNTYLHWYLQKPGQSPQLLIYKVSNRFSGVPDRFSGSGSGTDFTLKISRVEAEDVGVYYCSQNTHVPPTFGQGTKVEIERTVAAPSVFIFPPSDEQLKSGTASVVCLLNNFYPREAKVQWKVDNALQSGNSQESVTEQDSKDSTYSLSSTLTLSKADYEKHKVYACEVTHQGLSSPVTKSFNRGEC",163 % of control
7,"GpH7-B3 variant K326_15Y/GpL16-k0 (antibody, human IgG1, kappa, also called Ho Ab K326_15Y) heavy: not shown light: DIVMTQSPLSLPVTPGEPASISCQASESLVHSNRNTYLHWYLQKPGQSPQLLIYKVSNRFSGVPDRFSGSGSGTDFTLKISRVEAEDVGVYYCSQNTHVPPTFGQGTKVEIERTVAAPSVFIFPPSDEQLKSGTASVVCLLNNFYPREAKVQWKVDNALQSGNSQESVTEQDSKDSTYSLSSTLTLSKADYEKHKVYACEVTHQGLSSPVTKSFNRGEC",162 % of control
8,"GpH7-B3 variant K326_16H/GpL16-k0 (antibody, human IgG1, kappa, also called Ho Ab K326_16H) heavy: not shown light: DIVMTQSPLSLPVTPGEPASISCQASESLVHSNRNTYLHWYLQKPGQSPQLLIYKVSNRFSGVPDRFSGSGSGTDFTLKISRVEAEDVGVYYCSQNTHVPPTFGQGTKVEIERTVAAPSVFIFPPSDEQLKSGTASVVCLLNNFYPREAKVQWKVDNALQSGNSQESVTEQDSKDSTYSLSSTLTLSKADYEKHKVYACEVTHQGLSSPVTKSFNRGEC",131 % of control
9,"GpH7-B3 variant L235_20W/GpL16-k0 (antibody, human IgG1, kappa, also called Ho Ab L235_20W) heavy: not shown light: DIVMTQSPLSLPVTPGEPASISCQASESLVHSNRNTYLHWYLQKPGQSPQLLIYKVSNRFSGVPDRFSGSGSGTDFTLKISRVEAEDVGVYYCSQNTHVPPTFGQGTKVEIERTVAAPSVFIFPPSDEQLKSGTASVVCLLNNFYPREAKVQWKVDNALQSGNSQESVTEQDSKDSTYSLSSTLTLSKADYEKHKVYACEVTHQGLSSPVTKSFNRGEC",116 % of control
10,"GpH7-B3 variant P238_04F/GpL16-k0 (antibody, human IgG1, kappa, also called Ho Ab P238_04F) heavy: not shown light: DIVMTQSPLSLPVTPGEPASISCQASESLVHSNRNTYLHWYLQKPGQSPQLLIYKVSNRFSGVPDRFSGSGSGTDFTLKISRVEAEDVGVYYCSQNTHVPPTFGQGTKVEIERTVAAPSVFIFPPSDEQLKSGTASVVCLLNNFYPREAKVQWKVDNALQSGNSQESVTEQDSKDSTYSLSSTLTLSKADYEKHKVYACEVTHQGLSSPVTKSFNRGEC",209 % of control
11,"GpH7-B3 variant L328_02A/GpL16-k0 (antibody, human IgG1, kappa, also called Ho Ab L328_02A) heavy: not shown light: DIVMTQSPLSLPVTPGEPASISCQASESLVHSNRNTYLHWYLQKPGQSPQLLIYKVSNRFSGVPDRFSGSGSGTDFTLKISRVEAEDVGVYYCSQNTHVPPTFGQGTKVEIERTVAAPSVFIFPPSDEQLKSGTASVVCLLNNFYPREAKVQWKVDNALQSGNSQESVTEQDSKDSTYSLSSTLTLSKADYEKHKVYACEVTHQGLSSPVTKSFNRGEC",117 % of control

# Further lines, results first:
row,Ho/Con_2b,Binder
1,168 % of control,"GpH7-B3 variant K326_08L/GpL16-k0 (antibody, human IgG1, kappa, also called Ho Ab K326_08L) heavy: not shown light: DIVMTQSPLSLPVTPGEPASISCQASESLVHSNRNTYLHWYLQKPGQSPQLLIYKVSNRFSGVPDRFSGSGSGTDFTLKISRVEAEDVGVYYCSQNTHVPPTFGQGTKVEIERTVAAPSVFIFPPSDEQLKSGTASVVCLLNNFYPREAKVQWKVDNALQSGNSQESVTEQDSKDSTYSLSSTLTLSKADYEKHKVYACEVTHQGLSSPVTKSFNRGEC"
2,237 % of control,"GpH7-B3 variant K326_10E/GpL16-k0 (antibody, human IgG1, kappa, also called Ho Ab K326_10E) heavy: not shown light: DIVMTQSPLSLPVTPGEPASISCQASESLVHSNRNTYLHWYLQKPGQSPQLLIYKVSNRFSGVPDRFSGSGSGTDFTLKISRVEAEDVGVYYCSQNTHVPPTFGQGTKVEIERTVAAPSVFIFPPSDEQLKSGTASVVCLLNNFYPREAKVQWKVDNALQSGNSQESVTEQDSKDSTYSLSSTLTLSKADYEKHKVYACEVTHQGLSSPVTKSFNRGEC"
3,114 % of control,"GpH7-B3 variant K334_08L/GpL16-k0 (antibody, human IgG1, kappa, also called Ho Ab K334_08L) heavy: not shown light: DIVMTQSPLSLPVTPGEPASISCQASESLVHSNRNTYLHWYLQKPGQSPQLLIYKVSNRFSGVPDRFSGSGSGTDFTLKISRVEAEDVGVYYCSQNTHVPPTFGQGTKVEIERTVAAPSVFIFPPSDEQLKSGTASVVCLLNNFYPREAKVQWKVDNALQSGNSQESVTEQDSKDSTYSLSSTLTLSKADYEKHKVYACEVTHQGLSSPVTKSFNRGEC"
4,115 % of control,"GpH7-B3 variant K334_04F/GpL16-k0 (antibody, human IgG1, kappa, also called Ho Ab K334_04F) heavy: not shown light: DIVMTQSPLSLPVTPGEPASISCQASESLVHSNRNTYLHWYLQKPGQSPQLLIYKVSNRFSGVPDRFSGSGSGTDFTLKISRVEAEDVGVYYCSQNTHVPPTFGQGTKVEIERTVAAPSVFIFPPSDEQLKSGTASVVCLLNNFYPREAKVQWKVDNALQSGNSQESVTEQDSKDSTYSLSSTLTLSKADYEKHKVYACEVTHQGLSSPVTKSFNRGEC"
5,145 % of control,"GpH7-B3 variant K334_03V/GpL16-k0 (antibody, human IgG1, kappa, also called Ho Ab K334_03V) heavy: not shown light: DIVMTQSPLSLPVTPGEPASISCQASESLVHSNRNTYLHWYLQKPGQSPQLLIYKVSNRFSGVPDRFSGSGSGTDFTLKISRVEAEDVGVYYCSQNTHVPPTFGQGTKVEIERTVAAPSVFIFPPSDEQLKSGTASVVCLLNNFYPREAKVQWKVDNALQSGNSQESVTEQDSKDSTYSLSSTLTLSKADYEKHKVYACEVTHQGLSSPVTKSFNRGEC"
6,147 % of control,"GpH7-B3 variant L328_13S/GpL16-k0 (antibody, human IgG1, kappa, also called Ho Ab L328_13S) heavy: not shown light: DIVMTQSPLSLPVTPGEPASISCQASESLVHSNRNTYLHWYLQKPGQSPQLLIYKVSNRFSGVPDRFSGSGSGTDFTLKISRVEAEDVGVYYCSQNTHVPPTFGQGTKVEIERTVAAPSVFIFPPSDEQLKSGTASVVCLLNNFYPREAKVQWKVDNALQSGNSQESVTEQDSKDSTYSLSSTLTLSKADYEKHKVYACEVTHQGLSSPVTKSFNRGEC"
7,129 % of control,"GpH7-B3 variant K334_10E/GpL16-k0 (antibody, human IgG1, kappa, also called Ho Ab K334_10E) heavy: not shown light: DIVMTQSPLSLPVTPGEPASISCQASESLVHSNRNTYLHWYLQKPGQSPQLLIYKVSNRFSGVPDRFSGSGSGTDFTLKISRVEAEDVGVYYCSQNTHVPPTFGQGTKVEIERTVAAPSVFIFPPSDEQLKSGTASVVCLLNNFYPREAKVQWKVDNALQSGNSQESVTEQDSKDSTYSLSSTLTLSKADYEKHKVYACEVTHQGLSSPVTKSFNRGEC"
8,132 % of control,"GpH7-B3 variant K326_20W/GpL16-k0 (antibody, human IgG1, kappa, also called Ho Ab K326_20W) heavy: not shown light: DIVMTQSPLSLPVTPGEPASISCQASESLVHSNRNTYLHWYLQKPGQSPQLLIYKVSNRFSGVPDRFSGSGSGTDFTLKISRVEAEDVGVYYCSQNTHVPPTFGQGTKVEIERTVAAPSVFIFPPSDEQLKSGTASVVCLLNNFYPREAKVQWKVDNALQSGNSQESVTEQDSKDSTYSLSSTLTLSKADYEKHKVYACEVTHQGLSSPVTKSFNRGEC"
9,240 % of control,"GpH7-B3 variant K326_09D/GpL16-k0 (antibody, human IgG1, kappa, also called Ho Ab K326_09D) heavy: not shown light: DIVMTQSPLSLPVTPGEPASISCQASESLVHSNRNTYLHWYLQKPGQSPQLLIYKVSNRFSGVPDRFSGSGSGTDFTLKISRVEAEDVGVYYCSQNTHVPPTFGQGTKVEIERTVAAPSVFIFPPSDEQLKSGTASVVCLLNNFYPREAKVQWKVDNALQSGNSQESVTEQDSKDSTYSLSSTLTLSKADYEKHKVYACEVTHQGLSSPVTKSFNRGEC"
10,112 % of control,"GpH7-B3 variant K334_05P/GpL16-k0 (antibody, human IgG1, kappa, also called Ho Ab K334_05P) heavy: not shown light: DIVMTQSPLSLPVTPGEPASISCQASESLVHSNRNTYLHWYLQKPGQSPQLLIYKVSNRFSGVPDRFSGSGSGTDFTLKISRVEAEDVGVYYCSQNTHVPPTFGQGTKVEIERTVAAPSVFIFPPSDEQLKSGTASVVCLLNNFYPREAKVQWKVDNALQSGNSQESVTEQDSKDSTYSLSSTLTLSKADYEKHKVYACEVTHQGLSSPVTKSFNRGEC"
